Assay results published in patent US20160046944, “APTAMER TO IL-17 AND USE THEREOF” (THE UNIVERSITY OF TOKYO, published 2016).

What was measured:
Settings in all cases: chain copies: 2
IL-17 [1] = target: T1, IL-17 (Homo sapiens, UniProt Q16552 Q16552:24-155); assay: cell_activity; NIH3T3 IL-6 release
T1 sequence: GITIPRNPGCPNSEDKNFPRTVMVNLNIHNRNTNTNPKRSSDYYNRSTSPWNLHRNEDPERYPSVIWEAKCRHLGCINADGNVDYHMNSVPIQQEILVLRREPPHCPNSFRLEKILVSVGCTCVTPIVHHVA
Protocol: First, human IL-17 and the aptamer produced in Example 1-1 were pre-incubated at 37° C. for 30 min, and added to NIH3T3 cell (ATCC, CRL1658) together with mouse TNFα (2 ng/mL). Then, after incubation for 24 hr, the culture supernatant was collected, and the amount of IL-6 was measured by BD Cytometric Bead Array (BD Biosciences). The IL-17 inhibitory action of each aptamer was determined from the amount of IL-6. For comparison with the aptamer of the present invention, a conventionally-known aptamer (aptamer No. 50) against IL-17 was used.

IL-17 [2] = target: T1, IL-17; assay: SPR; IL-17R-Fc on chip
Protocol: Whether aptamers shown by aptamer Nos. 1-49 inhibit the binding of IL-17 and IL-17 receptor was evaluated by the surface plasmon resonance method.
For the measurement, BIAcore2000 manufactured by BIAcore was used. […] As an analyte, IL-17 (100 or 150 nM) and an aptamer (50 or 100 nM) shown by aptamer No. 1-49 were mixed, maintained for 15 min and after that the mixture was flown.

IL-17 (IL-17A) = target: T2, IL-17 (IL-17A) (Homo sapiens, UniProt Q16552 Q16552:24-155); assay: cell_activity; IL-6 release, NIH3T3
T2 sequence: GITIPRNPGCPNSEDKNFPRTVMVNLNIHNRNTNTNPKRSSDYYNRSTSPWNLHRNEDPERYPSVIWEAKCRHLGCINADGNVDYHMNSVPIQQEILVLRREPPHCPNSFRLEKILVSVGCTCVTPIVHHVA
Protocol: First, human IL-17 and the aptamer produced in Example 1-2 were pre-incubated at 37° C. for 30 min, and added to NIH3T3 cell (ATCC, CRL1658) together with mouse TNFα (2 ng/mL). Then, after incubation for 24 hr, the culture supernatant was collected, and the production amount of IL-6 was measured by ELISA method described below. The IL-17 inhibitory action of each aptamer was determined from the production amount of IL-6. For comparison with the aptamer of the present invention, a conventionally-known aptamer (aptamer No. 50) against IL-17 was used.
ELISA method for verifying IL-17 inhibitory action of aptamer: A microtiter plate for ELISA was coated with rat anti-mouse IL-6 antibody (BD Biosciences, 2 μg/mL; 100 μL/well) diluted with PBS, and incubated at 4° C. overnight. The next day, the microtiter plate was washed 3 times with PBS/0.05% Tween 20, and applied blocking with PBS/1% BSA (200 μL/well) at room temperature for 2 hr. Then, the plate was washed 3 times with PBS/0.05% Tween 20. Recombinant mouse IL-6 (BD Biosciences; 100 μL/well) serially diluted with PBS/1% BSA/0.05% Tween 20 or culture supernatants (100 μL/well) were added to the plate. After incubation at room temperature for 2 hr, the plate was washed 3 times with PBS/0.05% Tween 20. Then, 100 μL/well of biotin conjugated rat anti-mouse IL-6 antibody (BD Biosciences) was added to the plate at final dilution of 1/500, and the mixture was reacted at room temperature for 1 hr. After washing 3 times with PBS/0.05% Tween 20, 100 μL/well of alkaline phosphatase conjugated streptavidin was added at final dilution of 1/1000. After 30 min at room temperature, the plate was again washed 4 times with PBS/0.05% Tween 20, and a substrate (1-Step PNPP; Thermo Fisher Scientific Inc; 100 μL/well) was added. After 15 min, aqueous sodium hydroxide solution (2N: 50 μL/well) was added to stop the reaction, and the plate was read on a microtiter reader (Bio-Rad) by using a 405 nm filter.

Row | Binder | IC50 (IL-17 [1]) [nM] | binding signal (IL-17 [2]) | IC50 (IL-17 (IL-17A)) [nM]
1 | GGGUAGCCGGAGGAGUCAGUAAUCGGUACCC (mixed, LNA (L), 2'-F (F), PS (S), mc methylcytosine as marked; SEQ ID NO:1 [LNA at 1-3,29-31 (29-31 methylcytosine); 2'-F at 4,7,8,16,17,20,23,24,27; PS at 6,9]) [aptamer No. 1] | 1.17 | 28.6 % IL-17/IL-17R binding remaining | –
2 | GGGUAGCCGGAGGAGTCAGTAAUCGGUACCC (mixed, g(M)g(M)g(M)u(M)Ag(S)c(M)c(M)Gg(M)a(F)gg(M)a(M)g(S)Tc(F)a(F)g(S)Ta(M)a(M)u(M)c(M)g(M)g(M)u(F)a(M)CCC) [aptamer No. 56] | – | – | 0.52
3 | GGGUAGCCGGAGGAGUCAGUAAUCGGUACCC (mixed, g(M)g(M)g(M)u(M)a(M)g(S)c(M)c(M)Gg(M)a(F)gg(M)a(M)g(S)u(F)c(F)a(F)g(S)u(F)a(M)a(M)u(M)c(M)g(M)g(M)u(F)Ac(M)c(M)c(M)) [aptamer No. 68] | – | – | 2.4
4 | GGGUAGCCGGAGGAGTCAGTAAUCGGUACCC (mixed, g(M)g(M)g(M)u(M)a(M)g(S)c(M)c(M)Gg(M)a(M)gg(M)a(M)g(S)Tc(M)a(F)g(S)Taa(M)u(M)c(M)g(M)g(M)u(M)a(M)c(M)c(M)c(M)) [aptamer No. 89] | – | – | 6.21
5 | GGGUAGCCGGAGGAGUCAGUAAUCGGUACCC (mixed, g(M)g(M)g(M)u(M)a(M)g(S)c(M)c(M)Gg(M)a(F)gg(M)a(M)g(S)u(F)c(F)a(F)g(S)u(F)a(M)a(M)u(M)c(M)g(M)g(M)u(M)a(M)c(M)c(M)c(M)) [aptamer No. 73] | – | – | 3.46
6 | GGGUAGCCGGAGGAGTCAGTAAUCGGUACCC (mixed, g(M)g(M)g(M)u(M)Ag(S)c(M)c(M)Gg(M)a(F)gg(M)a(M)g(S)Tc(F)a(F)g(M)Ta(M)a(M)u(M)c(M)g(M)g(M)u(F)a(M)c(M)c(M)c(M)) [aptamer No. 59] | – | – | 1.19
7 | GGGUAGCCGGAGGAGUCAGUAAUCGGUACCC (mixed, g(M)g(M)g(M)u(M)a(M)g(S)c(M)c(M)Gg(M)a(F)gg(M)a(M)gu(F)c(F)a(F)gu(F)a(M)a(M)u(M)c(M)g(M)g(M)u(M)a(M)c(M)c(M)c(M)) [aptamer No. 72] | – | – | 2.24
8 | GGGUAGCCGGAGGAGTCAGTAAUCGGUACCC (mixed, g(M)g(M)g(M)u(M)a(M)g(S)c(M)c(M)Gg(M)a(M)gg(M)a(M)g(S)Tc(M)a(F)g(S)Taau(M)c(M)g(M)g(M)u(M)a(M)c(M)c(M)c(M)) [aptamer No. 91] | – | – | 3.86
9 | GGGUAGCCGGAGGAGUCAGUAAUCGGUACCC (mixed, g(M)g(M)g(M)u(M)a(M)g(S)c(M)c(M)Gg(M)a(M)gg(M)a(M)g(S)u(F)c(F)a(F)g(S)u(F)aau(M)c(M)g(M)g(M)u(F)a(M)c(M)c(M)c(M)) [aptamer No. 94] | – | – | 0.29
10 | GGGUAGCCGGAGGAGUCAGUAAUCGGUACCC (mixed, g(M)g(M)g(M)u(M)a(M)g(S)c(M)c(M)Gg(M)a(M)gg(M)a(M)g(S)u(F)c(F)a(F)g(S)u(F)a(M)au(M)c(M)g(M)g(M)u(F)a(M)c(M)c(M)c(M)) [aptamer No. 93] | – | – | 0.22
11 | GGGUAGCCGGAGGAGTCAGTGAUCGGUACCC (mixed, g(M)g(M)g(M)u(M)a(M)g(S)c(M)c(M)Gg(M)a(M)gg(M)a(M)g(S)Tc(M)a(F)g(S)Tg(M)a(M)u(M)c(M)g(M)g(M)u(M)a(M)c(M)c(M)c(M)) [aptamer No. 86] | – | – | 5.16
12 | GGGUAGCCGGAGGAGTCAGTAAUCGGTACCC (mixed, 2'-OMe (M), 2'-F (F) as marked; uppercase DNA [2'-OMe: 1-4,7,8,10,13,14,23-26,28-31; 2'-F: 17]) [aptamer No. 22] | 1.66 | – | –
13 | GGGUAGCCGGAGGAGTCAGTAAUCGGUACCC (mixed, g(M)g(M)g(M)u(M)a(M)gc(M)c(M)Gg(M)a(F)gg(M)a(M)gTc(F)a(F)gTa(M)a(M)u(M)c(M)g(M)g(M)u(M)a(M)c(M)c(M)c(M)) [aptamer No. 78] | – | – | 1.36
14 | GGGUAGCCGGAGGAGTCAGTAAUCGGUACCC (mixed, g(M)g(M)g(M)u(M)a(M)g(S)c(M)c(M)Gg(M)a(M)gg(M)a(M)g(S)Tc(F)a(F)g(S)Ta(M)a(M)u(M)c(M)g(M)g(M)u(M)a(M)c(M)c(M)c(M)) [aptamer No. 82] | – | – | 0.48
15 | GGGUAGCCGGAGGAGTCAGTGAUCGGUACCC (mixed, g(M)g(M)g(M)u(M)a(M)g(S)c(M)c(M)Gg(M)a(M)gg(M)a(M)g(S)Tc(M)a(F)g(S)Tga(M)u(M)c(M)g(M)g(M)u(M)a(M)c(M)c(M)c(M)) [aptamer No. 87] | – | – | 3.23
16 | GGGUAGCCGGAGGAGTCAGTAAUCGGUACCC (mixed, 2'-OMe (M), 2'-F (F), PS (S) as marked; uppercase DNA [1,2,3,4,5,6,7,8,10,11,13,14,17,18,21,23,24,25,26,27]) [aptamer No. 10] | 0.63 | 25.2 % IL-17/IL-17R binding remaining | –
17 | GGGUAGCCGGAGGAGUCAGUAAUCGGUACCC (ssRNA, g(M)g(M)g(M)u(M)a(M)gc(M)c(M)gg(M)a(F)gg(M)a(M)gu(F)c(F)a(F)gu(F)a(M)a(M)u(M)c(M)g(M)g(M)u(M)a(M)c(M)c(M)c(M)) [aptamer No. 79] | – | – | 2.25
18 | GGGUAGCCGGAGGAGTCAGTAAUCGGUACCC (mixed, 2'-OMe (M), 2'-F (F), PS (S) as marked; uppercase DNA; (NI) printed, likely (M) [1,2,3,4,5,6,7,8,10,13,14,17,18,21,22,23,24,25,26,27]) [aptamer No. 6] | 0.77 | 25.3 % IL-17/IL-17R binding remaining | –
19 | GGGUAGCCGGAGGAGUCAGUAAUCGGUACCC (mixed, g(M)g(M)g(M)u(M)a(M)gc(M)c(M)gg(M)a(F)gg(M)a(M)gu(F)c(F)a(F)gu(F)a(M)a(M)u(M)c(M)g(M)g(M)u(F)Ac(M)c(M)c(M)) [aptamer No. 77] | – | – | 4.66
20 | GGGUAGCCGGAGGAGTCAGTAAUCGGUACCC (mixed, 2'-OMe (M), 2'-F (F) as marked; uppercase DNA [1,2,3,4,6,7,8,10,11,13,14,17,18,21,22,23,24,25,26,27,28]) [aptamer No. 14] | 0.5 | 16.5 % IL-17/IL-17R binding remaining | –
21 | GGGUAGCCGGAGGAGUCAGUAAUCGGUACCC (mixed, g(M)g(M)g(M)u(M)a(M)gc(M)c(M)Gg(M)a(F)gg(M)a(M)gu(F)c(F)a(F)gu(F)a(M)a(M)u(M)c(M)g(M)g(M)u(F)Ac(M)c(M)c(M)) [aptamer No. 76] | – | – | 1.7
22 | GGGUAGCCGGAGGAGTCAGTAAUCGGUACCC (mixed, g(M)g(M)g(M)u(M)a(M)g(S)c(M)c(M)Gg(M)a(M)gg(M)a(M)g(S)Tc(M)a(F)g(S)Ta(M)au(M)c(M)g(M)g(M)u(M)a(M)c(M)c(M)c(M)) [aptamer No. 90] | – | – | 1.08
